B5: full-length intracellular domain of the p55-TNF-R (p55IC) (receptor)
chain: RYQRWKSKLYSIVCGKSTPEKEGELEGTTTKPLAPNPSFSPTPGFTPTLGFSPVPSSTFTSSSTYTPGDCPNFAAPRREVAPPYQGADPILATALASDPIPNPLQKWEDSAHKPQSLDTDDPATLYAVVENVPPLRWKEFVRRLGLSDHEIDRLELQNGRCLREAQYSMLATWRRRTPRREATLELLGRVLRDMDLLGCLEDIEEALCGPAALPPAPSLLR
notes: the GAL4 part is not written as a piece; also called pGBT9-IC55; IC55

Legend:
[1] = target: T1, 55.11 protein, partial (residues 309-900, as originally isolated), GAL4 activation-domain hybrid (human, UniProt Q13200 318-899); assay: yeast two-hybrid beta-galactosidase filter assay (SFY526), FIG. 13
pGBT9 (vector alone) [2] = target: T2, pGBT9 (vector alone) (UniProt P04386 1-147); assay: yeast two-hybrid (SFY526), liquid beta-galactosidase assay
T2 construct: Negative control bait; also called empty bait vector; empty Gal4 (pGBT9) vector

[3] = target: B5; assay: as above
[4] = target: T3, lamin (irrelevant protein); assay: as above
T3 construct: Two-hybrid control bait; also called pACT-Lamin

pGBT9 (vector alone) [5] = target: T2, pGBT9 (vector alone); assay: yeast two-hybrid, colony colour (lacZ/X-gal)
[6] = target: T1, 55.11 protein, partial (residues …); assay: yeast two-hybrid, colony colour (lacZ/X-gal)
[7] = target: T4, 55.11 construct 457-900 (N-terminal truncation) (human, UniProt Q13200 466-899); assay: yeast two-hybrid beta-galactosidase filter assay (SFY526), FIG. 13
T4 construct: GAL4 part not written

[8] = target: T5, 55.11 construct 309-680 (C-terminal truncation) (human, UniProt Q13200 318-689); assay: as above
T5 construct: GAL4 part not written

[9] = target: T6, 55.11 protein, partial (residues 309-900), VP16 activation-domain hybrid (human, UniProt Q13200 318-899); assay: as above
T6 construct: the VP16 part is not written; also called VP16AD

[10] = target: the molecule itself; assay: yeast two-hybrid beta-galactosidase test (FIG. 14)
[11] = target: B5; assay: yeast two-hybrid (SFY526), various baits

T2 sequence (P04386 1-147 limits assumed): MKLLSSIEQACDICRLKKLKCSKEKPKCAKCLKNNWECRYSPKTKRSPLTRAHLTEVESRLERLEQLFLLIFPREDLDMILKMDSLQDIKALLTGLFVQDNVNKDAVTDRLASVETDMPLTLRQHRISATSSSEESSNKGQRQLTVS
T1 sequence (Q13200 other isoform, or with tags, fused parts or gaps): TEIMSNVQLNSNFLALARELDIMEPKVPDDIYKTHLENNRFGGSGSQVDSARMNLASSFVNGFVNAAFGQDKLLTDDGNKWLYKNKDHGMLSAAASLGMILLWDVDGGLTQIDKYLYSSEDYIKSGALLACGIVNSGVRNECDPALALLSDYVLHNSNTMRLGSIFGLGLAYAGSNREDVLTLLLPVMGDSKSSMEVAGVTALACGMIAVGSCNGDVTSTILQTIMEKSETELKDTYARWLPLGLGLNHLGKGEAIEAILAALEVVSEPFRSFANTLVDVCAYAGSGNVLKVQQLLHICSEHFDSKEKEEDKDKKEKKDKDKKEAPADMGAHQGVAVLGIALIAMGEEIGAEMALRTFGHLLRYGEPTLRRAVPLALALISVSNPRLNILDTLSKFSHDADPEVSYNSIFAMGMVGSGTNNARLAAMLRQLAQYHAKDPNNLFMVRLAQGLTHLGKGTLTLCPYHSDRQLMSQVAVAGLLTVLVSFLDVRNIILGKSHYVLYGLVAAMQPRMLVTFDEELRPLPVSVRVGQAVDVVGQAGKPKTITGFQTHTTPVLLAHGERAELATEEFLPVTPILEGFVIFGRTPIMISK
T4 sequence (Q13200 other isoform, or with tags, fused parts or gaps): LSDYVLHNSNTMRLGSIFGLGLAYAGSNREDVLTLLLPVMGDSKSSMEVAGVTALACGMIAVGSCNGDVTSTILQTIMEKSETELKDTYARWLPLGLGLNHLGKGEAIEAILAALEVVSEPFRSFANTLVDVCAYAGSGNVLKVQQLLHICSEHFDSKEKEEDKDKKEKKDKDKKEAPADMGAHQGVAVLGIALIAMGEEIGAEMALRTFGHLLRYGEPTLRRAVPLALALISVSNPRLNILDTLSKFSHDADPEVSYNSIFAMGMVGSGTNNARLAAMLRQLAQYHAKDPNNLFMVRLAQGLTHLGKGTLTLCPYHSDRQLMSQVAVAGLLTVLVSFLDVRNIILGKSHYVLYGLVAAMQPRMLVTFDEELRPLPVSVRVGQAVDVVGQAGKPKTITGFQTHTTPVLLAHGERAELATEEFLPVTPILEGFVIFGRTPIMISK
T5 sequence (Q13200 318-689): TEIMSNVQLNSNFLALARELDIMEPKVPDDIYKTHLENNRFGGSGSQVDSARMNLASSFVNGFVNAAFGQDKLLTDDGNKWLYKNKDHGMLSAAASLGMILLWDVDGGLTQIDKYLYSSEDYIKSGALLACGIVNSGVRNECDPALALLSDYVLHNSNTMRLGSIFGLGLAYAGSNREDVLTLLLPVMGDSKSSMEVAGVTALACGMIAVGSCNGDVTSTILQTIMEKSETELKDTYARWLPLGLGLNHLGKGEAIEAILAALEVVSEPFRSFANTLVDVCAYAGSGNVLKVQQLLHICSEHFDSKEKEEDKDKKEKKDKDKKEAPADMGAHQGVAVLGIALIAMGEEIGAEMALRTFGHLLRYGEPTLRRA

B1: truncated p55-IC from which the death domain had been deleted (construct 206-328) (receptor)
chain: RYQRWKSKLYSIVCGKSTPEKEGELEGTTTKPLAPNPSFSPTPGFTPTLGFSPVPSSTFTSSSTYTPGDCPNFAAPRREVAPPYQGADPILATALASDPIPNPLQKWEDSAHKPQSLDTDDPA
notes: GAL4 part not written
B1: binds [1].

B2: C terminally truncated p55-IC (construct 206-308) (receptor)
chain: RYQRWKSKLYSIVCGKSTPEKEGELEGTTTKPLAPNPSFSPTPGFTPTLGFSPVPSSTFTSSSTYTPGDCPNFAAPRREVAPPYQGADPILATALASDPIPNP
notes: GAL4 part not written
B2: binds [1].

B3: p55-IC construct from which both the death domain and a membrane proximal part were deleted (construct 243-328) (receptor)
chain: SFSPTPGFTPTLGFSPVPSSTFTSSSTYTPGDCPNFAAPRREVAPPYQGADPILATALASDPIPNPLQKWEDSAHKPQSLDTDDPA
notes: GAL4 part not written
B3: binds [1].

B4: 55.1 (protein fragment 55.1 of the p55IC, residues 328-426, the death domain) (receptor)
chain: ATLYAVVENVPPLRWKEFVRRLGLSDHEIDRLELQNGRCLREAQYSMLATWRRRTPRREATLELLGRVLRDMDLLGCLEDIEEALCGPAALPPAPSLLR
notes: also called death domain of human p55-R
B4 was tested, and the “Lac Z Activity in Liquid Culture Assay” value (pGBT9 (vector alone) [2]) was 0, the “Lac Z Activity in Liquid Culture Assay” value [3] was 0.65 and the “Lac Z Activity in Liquid Culture Assay” value [4] was 0. B4: no binding (pGBT9 (vector alone) [5]).

B5: binds [6]; no binding (tested: no development of color within 24 h) [7]; no binding (tested: no development of color within 24 h) [8]. B5: binds [9].

B6: mouse Fas/APO1 intracellular domain (FAS-IC, residues 166-306) (receptor, UniProt P25446 187-327, looked up)
chain: RKYRKRKCWKRRQDDPESRTSSRETIPMNASNLSLSKYIPRIAEDMTIQEAKKFARENNIKEGKIDEIMHDSIQDTAEQKVQLLLCWYQSHGKSDAYQDLIKGLKKAECRRTLDKFQDMVQKDLGKSTPDTGNENEGQCLE
notes: range 166-306; GAL4 hybrid constructs; also called murine FAS-IC; mouse FAS-IC
B6: binds [10].

B7: 55.3 (protein fragment 55.3 of the p55IC, residues 277-426) (receptor)
chain: NFAAPRREVAPPYQGADPILATALASDPIPNPLQKWEDSAHKPQSLDTDDPATLYAVVENVPPLRWKEFVRRLGLSDHEIDRLELQNGRCLREAQYSMLATWRRRTPRREATLELLGRVLRDMDLLGCLEDIEEALCGPAALPPAPSLLR
B7 was tested, and the “Lac Z Activity in Liquid Culture Assay” value (pGBT9 (vector alone) [2]) was 0, the “Lac Z Activity in Liquid Culture Assay” value [3] was 0.04 and the “Lac Z Activity in Liquid Culture Assay” value [4] was 0.

B8: E19 (p75IC-binding protein encoded by clone E19) (other)
chain: EAAGRERERTLEYAEAHAFKSPSKENKKKDKDMLEDKFKSNNLEREQEQLDRIVKESGGKLTRRLVNSQCEFERRKPDGTTTLGLLHPVDPIVGEPGYCPVRLGMTTGRLQSGVNTLQGFKEDKRNKVTPVLYLELWAPTVLYAPHYDSTFANYQQGLI
notes: HeLa cDNA clone in pGAD-GH; GAL4 part not written
B8: no binding [11].

B9: protein encoded by the 230 clone (other)
chain: GPIREAGLAGWLALGCSGPPAEAAGGAGEPWPQHSGKGQLAGRNAWVKKRKAPRENSPGVRSCRASGRASRPHGDPFLLTLPRARHPVTLNVTIQVSLKQRNVRFNTPFRRGEN
notes: 114 amino acid residues; HeLa cDNA clone in pGAD-GH; GAL4 part not written
B9: no binding [11].

B10: E3 (p75IC-binding protein encoded by clone E3) (other)
chain: TFKIRMEPDETVKVLKEKIEAEKGRDAFPVAGQKLIYAGKILSDDVPIRDYRIDEKNFVVVMVTKTKAGQGTSAPPEASPTAAPESSTSFPPAPTSGMSHPPPAAREDKSPSEESTPTPEQEPCLZ
notes: GAL4 part not written; for coprecipitation expressed in HeLa cells from pUHD10-3
B10: no binding [11].
